The values that follow are results of earlier work, collected in paper PMC4317059.

Data set [1] concerns the target Asp143 (UniProt position 144, GNAGSDLACGV). Briefly: kinetics.
Data set [2] concerns the target Glu143 (UniProt position 144, GNAGSELACGV). Nature of the data set: kinetics.

“Cu,Zn superoxide dismutase (SOD1) Arg143Asp mutant (Homo sapiens; R143D)”: the pKa result in data set [1] is “ca. 6.2”.

Regarding “Cu,Zn superoxide dismutase (SOD1) Arg143Glu mutant (Homo sapiens; R143E)”, the pKa result in data set [2] is given as “ca. 6.2”.
